This passage reports IC50 and Kd results from patent publication US20110059889A1 (SYNTONIX PHARMACEUTICALS, published 2011).

Assay [1] has as its target T1, soluble human FcRn (shFcRn) (human, UniProt P55899 24-297; P61769 21-119).
T1 construct: Biotinylated for the ELISA, amine-coupled to a CM5 chip for SPR; also called biotinylated shFcRn
The experiment in a line: IgG competition ELISA. On the technique in general: ELISA stands for enzyme-linked immunosorbent assay.
Experimental: (§1) The wells were coated with 100 μl/well of 1 μg/ml biotinylated-shFcRn in Buffer A. The plate was sealed and incubated at 37° C. for 2 hours. Afterwards, the plate was washed with 200 μl/well of Buffer B (Buffer B: 100 mM MES pH 6, 150 mM NaCl, 0.5% BSA IgG-free (Jackson ImmunoResearch, West Grove, Pa.), 0.05% Tween-20). […] To allow for mixing, the plate was rocked for 2 minutes, sealed and incubated at 37° C. for 2 hours. […] The plate was covered, incubated for 30 minutes at room temperature and washed 4 times with 200 μl/well of ice-cold buffer B. SureBlue TMB substrate solution (100 μl/well, KPL, Gaithersburg, Md.) was added and the plate was allowed to incubate at room temperature until color developed, which took 5 to 10 minutes. Once color developed, 100 μl/well of TMB stop solution (KPL, Gaithersburg, Md.) was added and the absorbance was measured at 450 nm. The data was plotted as absorbance vs. peptide concentration to derive the inhibitory concentration 50% (IC₅₀) values.

Assay [2] deals with T1, soluble human FcRn (shFcRn). The experiment in a line: SPR pH 6.
Experimental: (§2) The following steps were performed to cross-link soluble human or cynomolgus FcRn to the dextran surface of a CM5 sensor chip (Biacore AB, Uppsala, Sweden) by an amine coupling reaction involving 1-ethyl-(3-dimethylaminopropyl)-carbodiimide hydrochloride (EDC) (Biacore AB, Uppsala, Sweden) and N-hydroxysuccinimide (NHS) (Biacore AB, Uppsala, Sweden) as recommended by Biacore (BIAapplications Handbook, version AB, section 4.2, Biacore AB, Uppsala, Sweden). […] Residual sites on the FcRn flow cell were blocked with 1 M ethanolamine hydrochloride pH 8.5 (Biacore AB, Uppsala, Sweden). A control flow cell was blocked with ethanolamine for reference subtraction. For analysis of the monomeric peptides, FcRn was coated to a final density of 4000-5000 response units (RU). For analysis of the peptide dimers, FcRn was coated to a density of 2000-2500 RU. All SPR measurements were performed using a BIACORE 3000 Instrument (Biacore AB Uppsala, Sweden). For measurements done at either pH 6 or pH 7.4, experiments were performed in 50 mM phosphate, 100 mM sodium chloride, 0.01% surfactant P20 (Biacore AB, Uppsala, Sweden).
(§3) Ten, 2-fold dilutions of the peptide were injected over the FcRn-CM5 chip at a rate of 20 μl/min for 2 min. The peptide was dissociated from the chip for 2.5 minutes with buffer. Any remaining peptide was removed from the chip with a 30 second injection of HBS-P buffer (Biacore AB, Uppsala, Sweden) at a rate of 30 μl/min. Sensorgrams were generated and analyzed using BiaEval software version 3.1 (Biacore AB, Uppsala, Sweden). The equilibrium RU observed for each injection was plotted against concentration. The equilibrium KD values were derived by analysis of the plots using the steady state affinity model included in the BiaEval software.
For assay [3] the target is unchanged. Description: IgG competition ELISA. The source holds these as a separate data set.
Experimental: as §1
Assay [4] has the same target. Description: SPR pH 6. This is another data set of the same source.
Experimental: as §2, §3
The target is the same in assay [5]. Description: SPR pH 7.4.
Experimental: as §2, §3
Assay [6] has the same target. The experiment in a line: IgG competition ELISA. This is another data set of the same source.
Experimental: as §1
The target is the same in assay [7]. The experiment in a line: SPR pH 6. The source holds these as a separate data set.
Experimental: as §2, §3

Read-outs that look alike come from different tables or passages of the source. Bridge positions count the residues as written; N and C are the ends. Square brackets hold non-standard residues; d marks the D form. Ends that are not written are not given here. Phe(4-amidino) = N=C(N)c1ccc(C[C@H](N)C(=O)O)cc1; Phe(4-NH2) = Nc1ccc(C[C@H](N)C(=O)O)cc1; His(Me) = mono-methylated histidine; NMeL = CN[C@@H](CC(C)C)C(=O)O; Pen = CC(C)(S)[C@H](N)C(=O)O; hCys = N[C@@H](CCS)C(=O)O; Sar = CNCC(=O)O Where only a bound is given, the exact number is not on record here.

T1 sequence (P55899 24-297 limits assumed, chain 1 of 2): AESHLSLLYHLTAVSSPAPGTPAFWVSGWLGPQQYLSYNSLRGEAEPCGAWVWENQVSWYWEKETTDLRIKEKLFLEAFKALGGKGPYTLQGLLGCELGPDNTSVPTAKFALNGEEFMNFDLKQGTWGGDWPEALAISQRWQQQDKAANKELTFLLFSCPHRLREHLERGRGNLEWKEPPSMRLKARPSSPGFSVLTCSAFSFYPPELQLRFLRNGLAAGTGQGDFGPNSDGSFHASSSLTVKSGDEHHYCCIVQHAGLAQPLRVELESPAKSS
T1 sequence (P61769 21-119 limits assumed, chain 2 of 2): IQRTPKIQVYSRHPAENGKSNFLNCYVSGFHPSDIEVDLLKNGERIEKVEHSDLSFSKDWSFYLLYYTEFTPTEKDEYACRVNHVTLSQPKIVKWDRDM

B1: Peptide No. 28 (peptide)
peptide: QRF[hCys]TGHFGGLYP[hCys]NGP-NH2
modifications: disulfide 4-14; N-terminus assumed
SMILES: CC(C)C[C@@H]1NC(=O)CNC(=O)CNC(=O)[C@H](Cc2ccccc2)NC(=O)[C@H](Cc2c[nH]cn2)NC(=O)CNC(=O)[C@H]([C@@H](C)O)NC(=O)[C@@H](NC(=O)[C@H](Cc2ccccc2)NC(=O)[C@H](CCCNC(=N)N)NC(=O)[C@@H](N)CCC(N)=O)CCSSCC[C@@H](C(=O)N[C@@H](CC(N)=O)C(=O)NCC(=O)N2CCC[C@H]2C(N)=O)NC(=O)[C@@H]2CCCN2C(=O)[C@H](Cc2ccc(O)cc2)NC1=O
On to B1, for which the IC50 – broadly, the concentration that gives 50% inhibition – in assay [1] came out at 20 µM. Moreover, the Kd – broadly, the free concentration of one partner at which half of the binding sites on the other are occupied at equilibrium, for simple one-to-one binding – in assay [2] was 3.8 µM.

B2: Peptide No. 218 (peptide)
peptide: RF[Pen]TGHF[dV][Sar][NMeL]YPC-NH2
modifications: disulfide 3-13; N-terminus assumed
SMILES: CC(C)C[C@H]1C(=O)N[C@@H](Cc2ccc(O)cc2)C(=O)N2CCC[C@H]2C(=O)N[C@H](C(N)=O)CSSC(C)(C)[C@H](NC(=O)[C@H](Cc2ccccc2)NC(=O)[C@@H](N)CCCNC(=N)N)C(=O)N[C@@H]([C@@H](C)O)C(=O)NCC(=O)N[C@@H](Cc2c[nH]cn2)C(=O)N[C@@H](Cc2ccccc2)C(=O)N[C@H](C(C)C)C(=O)N(C)CC(=O)N1C
In turn, B2 yielded an IC50 in assay [3] of over 50 µM.

B3: Peptide No. 243 (peptide)
peptide: RF[Pen]TGHF[dN][Sar][NMeL]YPC-NH2
modifications: disulfide 3-13; N-terminus assumed
SMILES: CC(C)C[C@H]1C(=O)N[C@@H](Cc2ccc(O)cc2)C(=O)N2CCC[C@H]2C(=O)N[C@H](C(N)=O)CSSC(C)(C)[C@H](NC(=O)[C@H](Cc2ccccc2)NC(=O)[C@@H](N)CCCNC(=N)N)C(=O)N[C@@H]([C@@H](C)O)C(=O)NCC(=O)N[C@@H](Cc2c[nH]cn2)C(=O)N[C@@H](Cc2ccccc2)C(=O)N[C@H](CC(N)=O)C(=O)N(C)CC(=O)N1C
In turn, B3 yielded a Kd in assay [4] of 2.1 µM. Also, the IC50 in assay [3] was 29 µM.

B4: Peptide No. 255 (peptide)
peptide: RF[Pen]TGKFG[Sar][NMeL]YPC-NH2
modifications: disulfide 3-13; N-terminus assumed
SMILES: CC(C)C[C@H]1C(=O)N[C@@H](Cc2ccc(O)cc2)C(=O)N2CCC[C@H]2C(=O)N[C@H](C(N)=O)CSSC(C)(C)[C@H](NC(=O)[C@H](Cc2ccccc2)NC(=O)[C@@H](N)CCCNC(=N)N)C(=O)N[C@@H]([C@@H](C)O)C(=O)NCC(=O)N[C@@H](CCCCN)C(=O)N[C@@H](Cc2ccccc2)C(=O)NCC(=O)N(C)CC(=O)N1C
As for B4, the Kd in assay [5] turned out to be 1.1 µM; in assay [7] it was 1.3 µM. Moreover, the IC50 in assay [6] turned out to be 40 µM.

B5: Peptide No. 240 (peptide)
peptide: RF[Pen]TGHF[dT][Sar][NMeL]YPC-NH2
modifications: disulfide 3-13; N-terminus assumed
SMILES: CC(C)C[C@H]1C(=O)N[C@@H](Cc2ccc(O)cc2)C(=O)N2CCC[C@H]2C(=O)N[C@H](C(N)=O)CSSC(C)(C)[C@H](NC(=O)[C@H](Cc2ccccc2)NC(=O)[C@@H](N)CCCNC(=N)N)C(=O)N[C@@H]([C@@H](C)O)C(=O)NCC(=O)N[C@@H](Cc2c[nH]cn2)C(=O)N[C@@H](Cc2ccccc2)C(=O)N[C@H]([C@H](C)O)C(=O)N(C)CC(=O)N1C
On to B5, for which the Kd in assay [4] was 4.8 µM. This molecule also registered an IC50 in assay [3] of 71 µM.

B6: Peptide No. 241 (peptide)
peptide: RF[Pen]TGHF[dS][Sar][NMeL]YPC-NH2
modifications: disulfide 3-13; N-terminus assumed
SMILES: CC(C)C[C@H]1C(=O)N[C@@H](Cc2ccc(O)cc2)C(=O)N2CCC[C@H]2C(=O)N[C@H](C(N)=O)CSSC(C)(C)[C@H](NC(=O)[C@H](Cc2ccccc2)NC(=O)[C@@H](N)CCCNC(=N)N)C(=O)N[C@@H]([C@@H](C)O)C(=O)NCC(=O)N[C@@H](Cc2c[nH]cn2)C(=O)N[C@@H](Cc2ccccc2)C(=O)N[C@H](CO)C(=O)N(C)CC(=O)N1C
In turn, B6 displayed a Kd in assay [4] of 1.1 µM. The IC50 in assay [3] is 23 µM.

B7: Peptide No. 219 (peptide)
peptide: RF[Pen]TGHF[dL][Sar][NMeL]YPC-NH2
modifications: disulfide 3-13; N-terminus assumed
SMILES: CC(C)C[C@H]1NC(=O)[C@H](Cc2ccccc2)NC(=O)[C@H](Cc2c[nH]cn2)NC(=O)CNC(=O)[C@H]([C@@H](C)O)NC(=O)[C@@H](NC(=O)[C@H](Cc2ccccc2)NC(=O)[C@@H](N)CCCNC(=N)N)C(C)(C)SSC[C@@H](C(N)=O)NC(=O)[C@@H]2CCCN2C(=O)[C@H](Cc2ccc(O)cc2)NC(=O)[C@H](CC(C)C)N(C)C(=O)CN(C)C1=O
For B7, the Kd in assay [4] was found to be 0.47 µM. This molecule also registered an IC50 in assay [3] of 4 µM.

B8: Peptide No. 257 (peptide)
peptide: RF[Pen]TG[Phe(4-amidino)]FG[Sar][NMeL]YPC-NH2
modifications: disulfide 3-13; N-terminus assumed
SMILES: CC(C)C[C@H]1C(=O)N[C@@H](Cc2ccc(O)cc2)C(=O)N2CCC[C@H]2C(=O)N[C@H](C(N)=O)CSSC(C)(C)[C@H](NC(=O)[C@H](Cc2ccccc2)NC(=O)[C@@H](N)CCCNC(=N)N)C(=O)N[C@@H]([C@@H](C)O)C(=O)NCC(=O)N[C@@H](Cc2ccc(C(=N)N)cc2)C(=O)N[C@@H](Cc2ccccc2)C(=O)NCC(=O)N(C)CC(=O)N1C
Turning to B8, the Kd in assay [5] stood at 0.073 µM; in assay [7], 0.074 µM.

B9: Peptide No. 258 (peptide)
peptide: RF[Pen]TG[Phe(4-NH2)]FG[Sar][NMeL]YPC-NH2
modifications: disulfide 3-13; N-terminus assumed
SMILES: CC(C)C[C@H]1C(=O)N[C@@H](Cc2ccc(O)cc2)C(=O)N2CCC[C@H]2C(=O)N[C@H](C(N)=O)CSSC(C)(C)[C@H](NC(=O)[C@H](Cc2ccccc2)NC(=O)[C@@H](N)CCCNC(=N)N)C(=O)N[C@@H]([C@@H](C)O)C(=O)NCC(=O)N[C@@H](Cc2ccc(N)cc2)C(=O)N[C@@H](Cc2ccccc2)C(=O)NCC(=O)N(C)CC(=O)N1C
The molecule B9 returned a dissociation constant (Kd) in assay [5] of 1.1 µM. In assay [6], this molecule had an IC50 of 4.6 µM.

B10: Peptide No. 256 (peptide)
peptide: RF[Pen]TGRFG[Sar][NMeL]YPC-NH2
modifications: disulfide 3-13; N-terminus assumed
SMILES: CC(C)C[C@H]1C(=O)N[C@@H](Cc2ccc(O)cc2)C(=O)N2CCC[C@H]2C(=O)N[C@H](C(N)=O)CSSC(C)(C)[C@H](NC(=O)[C@H](Cc2ccccc2)NC(=O)[C@@H](N)CCCNC(=N)N)C(=O)N[C@@H]([C@@H](C)O)C(=O)NCC(=O)N[C@@H](CCCNC(=N)N)C(=O)N[C@@H](Cc2ccccc2)C(=O)NCC(=O)N(C)CC(=O)N1C
For B10, the Kd in assay [5] and in assay [7] was 0.5 µM in each case. In addition, in assay [6], the IC50 turned out to be 5.5 µM.

B11: Peptide No. 244 (peptide)
peptide: RF[Pen]TGHF[dE][Sar][NMeL]YPC-NH2
modifications: disulfide 3-13; N-terminus assumed
SMILES: CC(C)C[C@H]1C(=O)N[C@@H](Cc2ccc(O)cc2)C(=O)N2CCC[C@H]2C(=O)N[C@H](C(N)=O)CSSC(C)(C)[C@H](NC(=O)[C@H](Cc2ccccc2)NC(=O)[C@@H](N)CCCNC(=N)N)C(=O)N[C@@H]([C@@H](C)O)C(=O)NCC(=O)N[C@@H](Cc2c[nH]cn2)C(=O)N[C@@H](Cc2ccccc2)C(=O)N[C@H](CCC(=O)O)C(=O)N(C)CC(=O)N1C
Turning to B11, in assay [4], the Kd worked out at 0.58 µM. Moreover, in assay [3], the IC50 amounted to 6.4 µM.

B12: Peptide No. 34 (peptide)
peptide: QRF[Pen]TGHFGGLYP[Pen]NGP-NH2
modifications: disulfide 4-14; N-terminus assumed
SMILES: CC(C)C[C@@H]1NC(=O)CNC(=O)CNC(=O)[C@H](Cc2ccccc2)NC(=O)[C@H](Cc2c[nH]cn2)NC(=O)CNC(=O)[C@H]([C@@H](C)O)NC(=O)[C@@H](NC(=O)[C@H](Cc2ccccc2)NC(=O)[C@H](CCCNC(=N)N)NC(=O)[C@@H](N)CCC(N)=O)C(C)(C)SSC(C)(C)[C@@H](C(=O)N[C@@H](CC(N)=O)C(=O)NCC(=O)N2CCC[C@H]2C(N)=O)NC(=O)[C@@H]2CCCN2C(=O)[C@H](Cc2ccc(O)cc2)NC1=O
In the case of B12, the IC50 in assay [1] was 2 µM. Binding in assay [2] was characterised by a dissociation constant (Kd) of 0.37 µM.
Take RF[Pen]TG[His(Me)]FGGLYPC-NH2 (disulfide 3-13) [Peptide No. 259]: the Kd in assay [5] was determined as 0.38 µM; in assay [7], 0.14 µM. The molecule further showed an IC50 in assay [6] of 2.9 µM.

B13: Peptide No. 27 (peptide)
peptide: QRFCTGHFGGLYP[hCys]NGP-NH2
modifications: disulfide 4-14; N-terminus assumed
SMILES: CC(C)C[C@@H]1NC(=O)CNC(=O)CNC(=O)[C@H](Cc2ccccc2)NC(=O)[C@H](Cc2c[nH]cn2)NC(=O)CNC(=O)[C@H]([C@@H](C)O)NC(=O)[C@@H](NC(=O)[C@H](Cc2ccccc2)NC(=O)[C@H](CCCNC(=N)N)NC(=O)[C@@H](N)CCC(N)=O)CSSCC[C@@H](C(=O)N[C@@H](CC(N)=O)C(=O)NCC(=O)N2CCC[C@H]2C(N)=O)NC(=O)[C@@H]2CCCN2C(=O)[C@H](Cc2ccc(O)cc2)NC1=O
Molecule B13 yielded an IC50 in assay [1] of 21 µM. The molecule further gave a Kd in assay [2] of 3.9 µM.
With RF[Pen]TG[His(Me)2]FGGLYPC-NH2 (disulfide 3-13) [Peptide No. 260], the Kd in assay [5] came to 0.46 µM; in assay [7], 0.19 µM. The molecule also showed an IC50 in assay [6] of 4.4 µM.
